Measured values from patent US7833548B2, “Bioactive agent release coating and controlled humidity method” (Surmodics, Inc., priority 2002, dated 2010).

Test: Bioactive Agent Release Assay, dextran-TRITC from discs with polymer topcoat coated under controlled humidity
Type: physicochemical
Conditions: pEVA (33% vinyl acetate)/pBMA topcoat over dextran-TRITC layer, PBS, 37° C.; FIG. 2
Protocol: Two solutions were prepared in order to provide a coating composition of the presently claimed invention in the form of a two part system. The first solution was an aqueous solution containing the bioactive agent, dextran-TRITC, at a concentration of 15 mg/ml. The second solution contained poly(ethylene-co-vinylacetate) with a vinyl acetate concentration of 33% (w/w) and poly(n-butyl methacrylate), with approximate weight average molecular weight of 337 kilodaltons. The poly(n-butyl methacrylate) and poly(ethylene-co-vinylacetate) were purified by extraction with organic solvents to remove impurities, e.g., monomer residues. The polymers of the second solution were dissolved in tetrahydrofuran at a concentration of 10 mg/ml. […]
A suitable Bioactive Agent Release Assay, as describe herein, can be used to determine the extent and rate of bioactive agent release under physiological conditions. In general it is desirable that less than 50% of the total quantity of the bioactive agent be released in the first 24 hours. It is frequently desirable for quantities of bioactive agent to be released for a duration of at least 30 days.
Except as otherwise provided herein, each coated disc was placed in an amber vial with 4 mls of PBS. […] The concentration of bioactive agent in each PBS sample was determined using UV spectroscopy. […]

## tetramethylrhodamine isothiocyanate-Dextran [dextran-TRITC]
  release rate of the bioactive agent, topcoat coated at 48% relative humidity versus 10% relative humidity: released at a faster rate
